Earlier results on one substance are cited in publication PMC5244385.

In general, Kd refers to the free concentration of one partner at which half of the binding sites on the other are occupied at equilibrium, for simple one-to-one binding.

This data set deals with Fibrinogen (Homo sapiens) (UniProt P02671).
Chain of UniProt P02671 (P02671 36-866, chain 1 of 3): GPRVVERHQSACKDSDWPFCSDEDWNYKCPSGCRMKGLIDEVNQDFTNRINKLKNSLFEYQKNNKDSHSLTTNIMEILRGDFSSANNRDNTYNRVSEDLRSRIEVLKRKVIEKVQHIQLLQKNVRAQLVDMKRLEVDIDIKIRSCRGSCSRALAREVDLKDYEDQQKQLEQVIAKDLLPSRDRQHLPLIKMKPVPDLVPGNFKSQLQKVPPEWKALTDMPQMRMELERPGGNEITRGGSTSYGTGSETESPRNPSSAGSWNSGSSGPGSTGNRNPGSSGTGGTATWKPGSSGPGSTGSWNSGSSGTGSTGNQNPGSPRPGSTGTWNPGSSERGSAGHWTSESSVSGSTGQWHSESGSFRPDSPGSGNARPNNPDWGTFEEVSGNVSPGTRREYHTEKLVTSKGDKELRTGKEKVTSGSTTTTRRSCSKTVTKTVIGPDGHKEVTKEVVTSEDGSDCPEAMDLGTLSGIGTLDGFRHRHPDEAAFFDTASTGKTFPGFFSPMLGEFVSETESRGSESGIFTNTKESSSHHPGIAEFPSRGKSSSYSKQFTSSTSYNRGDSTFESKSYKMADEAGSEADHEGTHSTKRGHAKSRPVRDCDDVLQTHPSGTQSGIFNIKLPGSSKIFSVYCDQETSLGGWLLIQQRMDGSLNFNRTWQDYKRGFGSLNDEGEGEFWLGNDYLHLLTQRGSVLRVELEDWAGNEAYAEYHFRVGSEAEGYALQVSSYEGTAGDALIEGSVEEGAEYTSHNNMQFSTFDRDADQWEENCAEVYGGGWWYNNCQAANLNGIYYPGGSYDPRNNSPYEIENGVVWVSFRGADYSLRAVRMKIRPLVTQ
Chain of UniProt P02671 (P02675 45-491, chain 2 of 3, further chain): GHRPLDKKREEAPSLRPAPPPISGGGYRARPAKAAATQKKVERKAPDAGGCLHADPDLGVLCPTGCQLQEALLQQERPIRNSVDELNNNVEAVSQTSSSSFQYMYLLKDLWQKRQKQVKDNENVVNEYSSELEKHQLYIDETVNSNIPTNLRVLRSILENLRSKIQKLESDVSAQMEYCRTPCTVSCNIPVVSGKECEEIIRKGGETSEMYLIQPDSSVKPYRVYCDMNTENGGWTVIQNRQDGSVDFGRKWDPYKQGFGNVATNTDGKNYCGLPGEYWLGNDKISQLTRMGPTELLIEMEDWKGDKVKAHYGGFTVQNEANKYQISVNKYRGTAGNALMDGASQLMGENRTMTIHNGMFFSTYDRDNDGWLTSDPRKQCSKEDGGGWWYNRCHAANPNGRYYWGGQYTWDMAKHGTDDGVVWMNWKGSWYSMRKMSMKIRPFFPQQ
Chain of UniProt P02671 (P02679 27-453, chain 3 of 3, further chain): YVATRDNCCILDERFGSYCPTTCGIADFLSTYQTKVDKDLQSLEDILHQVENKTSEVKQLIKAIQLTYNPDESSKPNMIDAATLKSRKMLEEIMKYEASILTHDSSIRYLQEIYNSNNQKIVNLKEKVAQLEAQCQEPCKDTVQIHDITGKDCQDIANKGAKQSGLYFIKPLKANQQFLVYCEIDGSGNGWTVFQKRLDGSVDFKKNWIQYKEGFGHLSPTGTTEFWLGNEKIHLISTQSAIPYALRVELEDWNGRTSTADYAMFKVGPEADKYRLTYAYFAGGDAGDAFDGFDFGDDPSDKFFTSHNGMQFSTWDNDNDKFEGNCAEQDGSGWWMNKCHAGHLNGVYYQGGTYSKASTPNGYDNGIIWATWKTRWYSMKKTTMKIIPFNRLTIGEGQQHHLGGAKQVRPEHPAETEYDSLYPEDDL

With Clumping factor A (from UniProt Q53653), the Kd was 510 nM.
